# Where two headings read alike, the source gives them in different places.
# Columns and labels:
# GPCR bovine rhodopsin [1] = target: T1, GPCR bovine rhodopsin (Bos taurus, UniProt P02699); test: Thermal stability of rhodopsin in peptide solution in the presence of surfactant (decay of A500); format: biochemical
# T1 construct: Bovine retinae rod outer segment membranes were prepared (40, 41) and urea-stripped (42); tissue J. A. Lawson (Lincoln, Nebr.); host or cells: bovine retinae, rod outer segments
# T1 sequence (P02699 whole entry): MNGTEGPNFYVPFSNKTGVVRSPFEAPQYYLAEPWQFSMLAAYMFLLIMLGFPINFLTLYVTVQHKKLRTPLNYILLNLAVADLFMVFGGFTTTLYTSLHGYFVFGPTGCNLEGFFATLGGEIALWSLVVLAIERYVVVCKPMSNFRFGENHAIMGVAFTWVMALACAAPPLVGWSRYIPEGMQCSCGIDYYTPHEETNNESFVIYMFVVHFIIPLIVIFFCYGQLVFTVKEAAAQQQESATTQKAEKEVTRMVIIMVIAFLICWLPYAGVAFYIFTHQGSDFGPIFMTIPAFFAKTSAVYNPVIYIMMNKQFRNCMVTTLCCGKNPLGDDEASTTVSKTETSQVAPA
# Procedure: Solubilization of Rhodopsin in Different Surfactants. Bovine retinae rod outer segment membranes were prepared (40, 41) and urea-stripped (42). Samples of the membranes containing 1.4 nmol of rhodopsin were solubilized in 0.5 ml of PBS containing 0.5 mM phenylmethylsulfonyl fluoride with 1% DM or 2% (/vol) OG. The suspensions were centrifuged (100,000×g for 15 min), and the supernatants were kept in the dark at 4° C.
# Thermal Stability Study of Rhodopsin in Peptide Solution in the Presence of the Surfactant. Rhodopsin solubilized (32-34) in PBS containing 2% (vol/vol) OG was added to the same volume of PBS containing 0, […], 5.0, or 7.5 mM A6D, 1.8% PEG, or 5.4 mM RAD8. In another experiment, rhodopsin solubilized in PBS containing 1% (19.8 mM) DM was added to the same volume of PBS containing 5.0 mM A6D or 0, 5.0, or 19.8 mM DM. A decrease in A500 was recorded every 5 min up to 110 min at 40° C. for the samples containing OG and at 40-55° C. for those containing DM (FIGS. 2 and 3). UV-visible absorption spectroscopy was performed with a Lambda 6 spectrophotometer (Perkin-Elmer, Wellesley, Mass.) equipped with a temperature regulated cuvette holder with a slit width of 2 nm, 480 nm/min scan speed, and a response time of 1 second. The A500 remaining at different time points was expressed as the percentage of absorbance present at the start of the experiment. The half-life of rhodopsin in each solution was calculated by using a single exponential curve fit. The plot obtained from the percentage of absorbance at different time points was fitted to a single exponential curve with two parameters (Eq. 1).
# The plot obtained from the A500 values at different time points was directly fitted to a single exponential curve with three parameters (Eq. 2) when the plot from the percentage of absorbance could not be fitted to Eq. 1.
# The half-life (t1/2) was calculated using Eq. 3.
# [2] = non-peptide surfactant, medium not stated; cited from earlier work
# [3] = tested on: photosystem I (PSI) protein complex; conditions: cited from earlier work; for Stabilization of the PSI complex (≈735-nm fluorescence maximum, words): surfactant added before drying the sample, emission at 77 K
# GPCR bovine rhodopsin [4] = target: T1, GPCR bovine rhodopsin; test: Thermal stability of rhodopsin in peptide solution in the absence of OG (decay of A500); format: biochemical; conditions: for Half-life of rhodopsin: control samples containing only OG, without A6D
# Procedure: Thermal Stability of Rhodopsin in Peptide Solution in the Absence of OG. Rhodopsin solubilized in PBS containing 2% (vol/vol) OG was added to the same volume of PBS containing 2.5 mM A6D. […] Then, 0.5 ml of the mixture was poured into the tube. The tube was covered with 10 kDa of cutoff membrane and dialyzed against 4.5 ml of PBS containing 1.25 mM A6D for 40 h in the dark at 4° C. A resultant sample decrease in A500 was recorded every 5 min for 120 min at 40° C. A decrease in A500 of the predialysis mixture containing 1% OG and 1.25 mM A6D was also monitored as a control (FIG. 4A).
# [5] = target: T2, delipidated bovine rhodopsin (Bos taurus, UniProt P02699); test: Thermal stability of delipidated rhodopsin in the absence of phospholipids (decay of A500); format: biochemical
# T2 construct: Bovine retinae rod outer segment membranes were prepared (40, 41) and urea-stripped (42); tissue J. A. Lawson (Lincoln, Nebr.); host or cells: bovine retinae, rod outer segments
# T2 sequence (P02699 whole entry): as above
# Procedure: Removal of Phospholipids from Rhodopsin. Samples of the membranes containing 4.7 nmol of rhodopsin were solubilized in 1,000 ul of PBS containing 2% (vol/vol) OG. The suspension was mixed with 250 ul (settled beads, concentration of 50%) of rhodopsin-1D4 Sepharose and rotated for 3 h. The 1D4 Sepharose beads were then packed into a minicolumn (7-mm inner diameter) and washed with PBS containing 1% OG by using 500 bed volumes (total of 62.5 ml). The rhodopsin was then eluted with 1.5 ml of PBS containing 1% OG and the C-terminal nanopeptide.
# Thermal Stability Study of Rhodopsin in Peptide Solution in the Absence of Phospholipids. The delipidated rhodopsin solution was added to the same volume of 1% OG in PBS containing 0, 3.75, or 7.5 mM A6D, or 1.8% PEG (FIG. 4B). In another experiment, the delipidated rhodopsin solutions were poured into tubes. Each tube was covered with 10 kDa of cutoff membrane and dialyzed against 4.5 ml of PBS or PBS containing 1.25 mM A6D or 1% OG (FIG. 4C). For all samples, a decrease in A500 was recorded every 5 min, up to 120 min at 40° C.
# [6] = Critical aggregation concentration (CAC) of surfactants, dynamic light scattering; format: physicochemical
# Procedure: In a further embodiment, the surfactant peptide is added to the mammalian membrane protein at a concentration that is based on the CAC of the surfactant peptide. The CAC of surfactants can be determined experimentally using known dynamic light scattering methods. A minimal amount of sample can be used in this method. Each CAC determination takes a few hours, therefore it is possible to determine the CAC for a large number of peptide detergents in a few weeks. It is known that the lower the CAC, the more hydrophobic the detergents and the stronger the aggregation in water. The CAC for several peptide surfactants in water is shown below in Table 1.
# Similar to common surfactants, these peptide surfactants have defined critical aggregation concentrations (CACs) in the sub-millimolar to millimolar range, depending on the hydrophobicity of the tails and the ionic concentration. For example, in water, A6D has a CAC of ≈1.6 mM, and A6K has a CAC of 1.5 mM; however, in phosphate-based saline (PBS) (10 mM sodium phosphate/150 mM NaCl, pH 7.4), A6D has a CAC of 0.25 mM and A6K has a CAC of ≈0.23 mM. This difference is due the charge screening effect in accordance with the Derjaguin-Landau-Verwey-Overbeck (DVLO) theory, which postulates that a critical coagulation concentration of counterions is required to allow assembly and that this concentration will be inversely proportional to the valence of the counterion raised to the sixth power (28). The peptide surfactant supramolecular structure is similar to that of phospholipids; namely, the formation of a polar interface sequesters the hydrophobic tails from water.
# phycobilisomes = test: Stabilization of phycobilisomes, room temperature fluorescent spectroscopy (666 nm); format: biochemical, Porphridium Cruentum; conditions: for 666 nm fluorescence intensity: phycobilisomes after buffer change to 0.4M PBS, excitation 540 nm, room temperature
# Procedure: Methods: Native phycobilisomes were isolated from Porphridium Cruentum, purified by Martek Biosciences and received in stabilizing buffer (0.75 M PBS, pH ˜7). Peptergents (ac-A6D and ac-A6K—NH2) were used as supplied (CPC Scientific) without further purification. Briefly, phycobilisomes (1 ng/mL) were mixed with peptergent-0.75M PBS solutions (0, 1, 2, 4 and 8 critical aggregation concentrations (CAC)). Phycobilisome-peptide solutions were dialyzed (3400 MWCO) against PBS solutions of various molarity (0.6-0.01M) for 18 h, in the dark. Room temperature fluorescent spectroscopy of these solutions was conducted using an excitation wavelength of 540 nm and emitted fluorescence (550-700 nm) were collected. UV-Vis spectra were obtained to confirm solution concentrations for all acquired fluorescent data.
# GPCR bovine rhodopsin [7] = target: T1, GPCR bovine rhodopsin; test: Thermal stability of rhodopsin in peptide solution in the presence of surfactant (decay of A500); format: biochemical; conditions: control solution (1.25 mM A6D/1% OG), 50° C.
# [8] = target: T3, glycerol 3-phosphate dehydrogenase (Escherichia coli, UniProt P13035); conditions: in solution, assayed through protein gel electrophoresis; cited from earlier work
# T3 sequence (P13035 1-501): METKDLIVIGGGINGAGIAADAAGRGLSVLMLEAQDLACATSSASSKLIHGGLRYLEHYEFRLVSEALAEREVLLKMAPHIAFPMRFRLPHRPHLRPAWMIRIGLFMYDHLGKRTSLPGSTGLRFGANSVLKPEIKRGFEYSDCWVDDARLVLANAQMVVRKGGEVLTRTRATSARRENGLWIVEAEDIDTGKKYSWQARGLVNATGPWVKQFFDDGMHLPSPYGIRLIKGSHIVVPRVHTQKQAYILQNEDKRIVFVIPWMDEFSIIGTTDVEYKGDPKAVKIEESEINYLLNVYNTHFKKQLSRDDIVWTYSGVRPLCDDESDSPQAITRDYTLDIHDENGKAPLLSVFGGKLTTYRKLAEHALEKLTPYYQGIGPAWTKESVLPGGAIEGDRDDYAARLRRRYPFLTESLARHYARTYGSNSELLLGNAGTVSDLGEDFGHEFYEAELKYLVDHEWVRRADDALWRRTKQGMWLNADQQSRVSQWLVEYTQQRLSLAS
# [9] = in phosphate-based saline (PBS) (10 mM sodium phosphate/150 mM NaCl, pH 7.4)
compound,measurement,setting,value
"CCCCCCCCCCCCO[C@@H]1O[C@H](CO)[C@@H](O[C@H]2O[C@H](CO)[C@@H](O)[C@H](O)[C@H]2O)[C@H](O)[C@H]1O [DM, n-dodecyl-B-D-maltoside]",Half-life of rhodopsin,"GPCR bovine rhodopsin [1]; 12.3 mM DM, 50° C.",96 min
same,Half-life of rhodopsin,"GPCR bovine rhodopsin [1]; rhodopsin/phospholipid, 13.3 mM DM (89×CAC)",≈ 93 min
same,Half-life of rhodopsin,"GPCR bovine rhodopsin [1]; rhodopsin/phospholipids, 9.8 mM DM, 50° C.",102 min and ≈ 102 min
same,Half-life of rhodopsin,"GPCR bovine rhodopsin [1]; rhodopsin/phospholipids, 19.6 mM DM, 50° C.",96 min and ≈ 93 min
same,CAC,[2],≈ 0.15 mM
same,"Stabilization of the PSI complex (≈735-nm fluorescence maximum, words)",[3],did not stabilize
"CCCCCCCCO[C@@H]1O[C@H](CO)[C@@H](O)[C@H](O)[C@H]1O [OG, octyl-D-glucoside]",Half-life of rhodopsin,"GPCR bovine rhodopsin [1]; rhodopsin/phospholipids in 1% OG (PBS), 40° C.",71 min and ≈ 71 min
same,Half-life of rhodopsin,GPCR bovine rhodopsin [4]; 40° C.,≈ 101 min
same,Half-life of rhodopsin,GPCR bovine rhodopsin [4]; 50° C.,≈ 5 min
same,Stabilization effect on delipidated rhodopsin,"[5]; OG added to delipidated rhodopsin, 40° C.",did not have a significant stabilization effect
same,Half-life of rhodopsin,"[5]; delipidated rhodopsin dialyzed against 1% OG (control), 40° C.",27 min
same,Half-life of rhodopsin,"[5]; delipidated rhodopsin, 1% OG, 40° C. (A6D concentration series)",23 min
same,CAC,[2],≈ 5 mM
same,"Stabilization of the PSI complex (≈735-nm fluorescence maximum, words)",[3],did not stabilize
AAAAAAD [A6D],CAC,[6]; [9],0.25 mM
same,CAC,[6]; in water,~1.6 mM
same,fold increase in stability compared with the stability in OG alone,"GPCR bovine rhodopsin [1]; 2.5 mM A6D/1% OG, rhodopsin/phospholipids, 40° C.",2.5 fold
same,fold increase in stability of rhodopsin,"GPCR bovine rhodopsin [1]; 3.75 mM A6D/1% OG, rhodopsin/lipid, 40° C.",~4 fold
same,Half-life of rhodopsin,"GPCR bovine rhodopsin [1]; rhodopsin/lipid, 1.25 mM A6D/1% OG, 40° C.",101 min and ≈ 101 min
same,Half-life of rhodopsin,"GPCR bovine rhodopsin [1]; rhodopsin/lipid, 3.75 mM A6D/1% OG, 40° C.",277 min and ≈ 277 min
same,Half-life of rhodopsin,"GPCR bovine rhodopsin [1]; rhodopsin/phospholipids, 2.5 mM A6D/1% OG, 40° C.",173 min and ≈ 173 min
same,Thermal stability of rhodopsin,"GPCR bovine rhodopsin [1]; rhodopsin/phospholipids/DM (9.8 mM) plus 2.5 mM A6D, 50° C.",extremely stable with little decay
same,Thermal stability of rhodopsin,"GPCR bovine rhodopsin [4]; rhodopsin/lipid/A6D complex without OG, 2.5 mM A6D, 40° C., 50° C., and 55° C.",very stable at all tested temperatures with little denaturation
same,Half-life of rhodopsin,"[5]; delipidated rhodopsin, 1.25 mM A6D alone, no OG, no phospholipids, 40° C.",122 min and ≈ 122 min
same,fold increase in stability compared with the stability in OG alone,"[5]; delipidated rhodopsin, 1.87 mM A6D in OG, 40° C.",2.8 fold
same,Half-life of rhodopsin,"[5]; delipidated rhodopsin, 1.87 mM A6D/1% OG, 40° C.",76 min and ≈ 76 min
same,fold increase in stability compared with the stability in OG alone,"[5]; delipidated rhodopsin, 3.75 mM A6D in OG, 40° C.",4.7 fold
same,Half-life of rhodopsin,"[5]; delipidated rhodopsin, 3.75 mM A6D/1% OG, 40° C.",128 min and ≈ 128 min
same,fold increase in stability,"[5]; delipidated rhodopsin, A6D alone vs absence of both phospholipids and OG, 40° C.",2.6 fold
same,Concentration normalized signal strength,"phycobilisomes; 666 nm, versus stabilized control",very similar to the stabilized control
same,666 nm fluorescence intensity,phycobilisomes,1.3 ×10^5 cps
same,Half-life of rhodopsin,GPCR bovine rhodopsin [7],< 5 min
AAAAAAK [A6K],CAC,[6]; [9],≈ 0.23 mM
same,CAC,[6]; in water,~1.5 mM
same,666 nm fluorescence intensity,phycobilisomes,0.7 ×10^5 cps
same,Time the PSI complex is stable in a dried form,"[3]; room temperature, in the presence of the peptide surfactant",at least 3 weeks
same,"Stabilization of the PSI complex (≈735-nm fluorescence maximum, words)",[3],significantly stabilized the PSI complex
"Ac-n-RADARADA-c-NH2 (Ac-RADARADA-NH2) [RAD8, octapeptide similar in size to A6D without significant surfactant properties]",Half-life of rhodopsin,"GPCR bovine rhodopsin [1]; rhodopsin/phospholipid, 2.8 mM RAD8/1% OG, 40° C.",99 min and ≈ 99 min
VVVVVVD [V6D],CAC,[6]; in water,~0.7 mM
same,"Stabilization of the PSI complex (≈735-nm fluorescence maximum, words)",[3],"also stabilized the complex, but to a lesser extent"
same,Solubilized membrane protein function,[8],retaining its functional enzymatic activities
VVVVVVDD [V6D2],CAC,[6]; in water,1.1 mM
